Source: the RNAGym collection of RNA variant scans (doi:10.7554/elife.80360)

B1: Hammerhead Ribozyme (parent)
chain: ACCGGAUGUGCUUUCCGGUCUGAUGAGUCCGUGAGGACGAAACAG

Variants of: B1
Test: self-cleavage, relative activity (ratio to wild type); higher = more cleavage; co-transcriptional

Going from ACCGGAUGUGCUUUCCGGUCAGAUCAGUCCGUGAGGACGAAACAG [U21A G25C] to ACCGGAUGUGCUUUCCGGUCAGAUGAGUCCGUGUGGACGAAACAG [U21A A34U], the self-cleavage rises from 0.312 to 0.359.

Compared with ACCGGAUGUGCUUUCCGGUCAGAUGAGUCCGUGGGGACGAAACAG [U21A A34G], ACCGGAUGUGCUUUCCGGUCAGAUGAGUCCGUGCGGACGAAACAG [U21A A34C] is higher in self-cleavage: 0.387 for the first, 0.439 for the second.

Going from ACCGGAUGUGCUUUCCGGUUUGAUGAGUCCGUGAGGACGAACCAG [C20U A42C] to ACCGGAUGUGCUUUCCGGUUUGAUGAGUCCGUGAGGACGAAGCAG [C20U A42G], the self-cleavage falls from 0.323 to 0.258.

Going from ACCGGAUGUGCUUUCCGGUUUGAUGAGUCCGUGAGGACGAAUCAG [C20U A42U] to ACCGGAUGUGCUUUCCGGUUUGACGAGUCCGUGAGGACGAAACAG [C20U U24C], the self-cleavage rises from 0.322 to 0.508.

Compared with ACCGGAUGUGCUUUCCGGUUUGAGGAGUCCGUGAGGACGAAACAG [C20U U24G], ACCGGAUGUGCUUUCCGGUUUGAAGAGUCCGUGAGGACGAAACAG [C20U U24A] is higher in self-cleavage: 0.714 for the first, 0.799 for the second.

Going from ACCGGAUGUGCUUUCCGGUCAGAUGAGUCCGUGAGGGCGAAACAG [U21A A37G] to ACCGGAUGUGCUUUCCGGUCAGAUGAGUCCGUGAGGUCGAAACAG [U21A A37U], the self-cleavage rises from 0.365 to 0.502.

Compared with ACCGGAUGUGCUUUCCGGUCAGAUGAGUCCGUGAGGCCGAAACAG [U21A A37C], ACCGGAUGUGCUUUCCGGUCAGAUGAGUCCAUGAGGACGAAACAG [U21A G31A] is higher in self-cleavage: 0.529 for the first, 0.634 for the second.

First: ACCGGAUGUGCUUUCCGGUCAGAUGAGUCCUUGAGGACGAAACAG [U21A G31U]
Second: ACCGGAUGUGCUUUCCGGUCAGAUGAGUCCCUGAGGACGAAACAG [U21A G31C]
The self-cleavage of the first is higher: 0.554 for the first, 0.532 for the second.

First: ACCGGAUGUGCUUUCCGGUUUGAUGAGUCCGUGAGUACGAAACAG [C20U G36U]
Second: ACCGGAUGUGCUUUCCGGUUUGAUGAGUCCGUGAGAACGAAACAG [C20U G36A]
The self-cleavage of the first is lower: 0.359 for the first, 0.36 for the second.

First: ACCGGAUGUGCUUUCCGGUUUGAUGAGUCCGUGAGCACGAAACAG [C20U G36C]
Second: ACCGGAUGUGCUUUCCGGUCAGAUGAGUCCGUGAGGACGACACAG [U21A A41C]
The self-cleavage of the first is lower: 0.327 for the first, 0.437 for the second.

Going from ACCGGAUGUGCUUUCCGGUCAGAUGAGUCCGUGAGGACGAGACAG [U21A A41G] to ACCGGAUGUGCUUUCCGGUCAGAUGAGUCCGUGAGGACGAUACAG [U21A A41U], the self-cleavage falls from 0.401 to 0.325.

Going from ACCGGAUGUGCUUUCCGGUCAGUUGAGUCCGUGAGGACGAAACAG [U21A A23U] to ACCGGAUGUGCUUUCCGGUCAGGUGAGUCCGUGAGGACGAAACAG [U21A A23G], the self-cleavage rises from 0.34 to 0.419.

Going from ACCGGAUGUGCUUUCCGGUCAGCUGAGUCCGUGAGGACGAAACAG [U21A A23C] to ACCGGAUGUGCUUUCCGGUUUGAUGAGUCGGUGAGGACGAAACAG [C20U C30G], the self-cleavage falls from 0.474 to 0.398.

Going from ACCGGAUGUGCUUUCCGGUUUGAUGAGUCUGUGAGGACGAAACAG [C20U C30U] to ACCGGAUGUGCUUUCCGGUUUGAUGAGUCAGUGAGGACGAAACAG [C20U C30A], the self-cleavage falls from 0.594 to 0.464.

Going from ACCGGAUGUGCUUUCCGGUUUGAUGAGUUCGUGAGGACGAAACAG [C20U C29U] to ACCGGAUGUGCUUUCCGGUUUGAUGAGUACGUGAGGACGAAACAG [C20U C29A], the self-cleavage falls from 0.395 to 0.296.

Compared with ACCGGAUGUGCUUUCCGGUUUGAUGAGUGCGUGAGGACGAAACAG [C20U C29G], ACCGGAUGUGCUUUCCGGUCAGAUGAGUCCGUGAGGACGAACCAG [U21A A42C] is higher in self-cleavage: 0.378 for the first, 0.382 for the second.

First: ACCGGAUGUGCUUUCCGGUCAGAUGAGUCCGUGAGGACGAAGCAG [U21A A42G]
Second: ACCGGAUGUGCUUUCCGGUCAGAUGAGUCCGUGAGGACGAAUCAG [U21A A42U]
The self-cleavage of the first is lower: 0.307 for the first, 0.402 for the second.

First: ACCGGAUGUGCUUUCCGGUUUGAUUAGUCCGUGAGGACGAAACAG [C20U G25U]
Second: ACCGGAUGUGCUUUCCGGUUUGAUCAGUCCGUGAGGACGAAACAG [C20U G25C]
The self-cleavage of the first is higher: 0.328 for the first, 0.273 for the second.

Going from ACCGGAUGUGCUUUCCGGUUUGAUAAGUCCGUGAGGACGAAACAG [C20U G25A] to ACCGGAUGUGCUUUCCGGUUUGAUGAGUCCGUGAGGGCGAAACAG [C20U A37G], the self-cleavage falls from 0.756 to 0.565.

Compared with ACCGGAUGUGCUUUCCGGUUUGAUGAGUCCGUGAGGUCGAAACAG [C20U A37U], ACCGGAUGUGCUUUCCGGUUUGAUGAGUCCGUGAGGAGGAAACAG [C20U C38G] is lower in self-cleavage: 0.403 for the first, 0.298 for the second.

Going from ACCGGAUGUGCUUUCCGGUUUGAUGAGUCCGUGAGGAAGAAACAG [C20U C38A] to ACCGGAUGUGCUUUCCGGUUUGAUGAGUCCGUGAGGAUGAAACAG [C20U C38U], the self-cleavage rises from 0.336 to 0.501.

Compared with ACCGGAUGUGCUUUCCGGUUUGAUGAGUCCGUGAGGACUAAACAG [C20U G39U], ACCGGAUGUGCUUUCCGGUUUGAUGAGUCCGUGAGGACAAAACAG [C20U G39A] is higher in self-cleavage: 0.335 for the first, 0.383 for the second.

ACCGGAUGUGCUUUCCGGUUUGAUGAGUCCGUGAGGACCAAACAG [C20U G39C] and ACCGGAUGUGCUUUCCGGUUGGAUGAGUCCGUGAGGACGAAACAG [C20U U21G] are the same in self-cleavage: 0.362 for the first, 0.362 for the second.

Going from ACCGGAUGUGCUUUCCGGUUCGAUGAGUCCGUGAGGACGAAACAG [C20U U21C] to ACCGGAUGUGCUUUCCGGUUAGAUGAGUCCGUGAGGACGAAACAG [C20U U21A], the self-cleavage falls from 0.531 to 0.358.

Going from ACCGGAUGUGCUUUCCGGUUUGAUGAGGCCGUGAGGACGAAACAG [C20U U28G] to ACCGGAUGUGCUUUCCGGUUUGAUGAGACCGUGAGGACGAAACAG [C20U U28A], the self-cleavage rises from 0.596 to 0.621.

Compared with ACCGGAUGUGCUUUCCGGUUUGAUGAGCCCGUGAGGACGAAACAG [C20U U28C], ACCGGAUGUGCUUUCCGGUUUGAUGAGUCCGAGAGGACGAAACAG [C20U U32A] is lower in self-cleavage: 0.661 for the first, 0.506 for the second.

First: ACCGGAUGUGCUUUCCGGUUUGAUGAGUCCGGGAGGACGAAACAG [C20U U32G]
Second: ACCGGAUGUGCUUUCCGGUUUGAUGAGUCCGCGAGGACGAAACAG [C20U U32C]
The self-cleavage of the first is higher: 0.494 for the first, 0.395 for the second.

First: ACCGGAUGUGCUUUCCGGUCAGAUGAGUCCGUGAGGACGAAAUAG [U21A C43U]
Second: ACCGGAUGUGCUUUCCGGUCAGAUGAGUCCGUGAGGACGAAAAAG [U21A C43A]
The self-cleavage of the first is higher: 0.398 for the first, 0.349 for the second.

ACCGGAUGUGCUUUCCGGUCAGAUGAGUCCGUGAGGACGAAAGAG [U21A C43G] gave a self-cleavage of 0.32.
